Experimental data from publication PMC7943195.

What was measured:
[1] = molecular target: A. baumannii 19606 PBP1B (Acinetobacter baumannii 19606 (ATCC))
[2] = molecular target: P. aeruginosa PBP1B (Pseudomonas aeruginosa)

| fold stimulation of the glycosyltransferase rate (dansyl-lipid II assay) with 0.5 µM LpoP^Ab(sol), Triton X-100-solubilised PBP1B^Ab [1] [fold] | fold increase of the final FRET with 2 µM LpoP^Pa(sol), PBP1B^Pa in liposomes [2] [fold] | fold increase of the final FRET with 2 µM LpoP^Pa(sol), Triton X-100-solubilised PBP1B^Pa [2] [fold] | Substance |
| --- | --- | --- | --- |
| 3.3 | – | – | A. baumannii 19606 LpoP(sol) (natural protein) |
| – | 2.2 | 2.1 | P. aeruginosa LpoP(sol) (natural protein) |
